In paper PMC8456781, “Myosin-X and talin modulate integrin activity at filopodia tips” (Cell Reports, 2021):
Blank lines part the entries; values can stand above or below the binder they belong to. Where no end group is shown, it is not given here.

B4: His-tagged MYO10^FERM (recombinant MYO10 MyTH4/FERM domain) (domain or fragment)
chain: TPTQQLIQDIKENCLNSDVVEQIYKRNPILRYTHHPLHSPLLPLPYGDINLNLLKDKGYTTLQDEAIKIFNSLQQLESMSDPIPIIQGILQTGHDLRPLRDELYCQLIKQTNKVPHPGSVGNLYSWQILTCLSCTFLPSRGILKYLKFHLKRIREQFPGSEMEKYALFTYESLKKTKCREFVPSRDEIEALIHRQEMTSTVYCHGGGSCKITINSHTTAGEVVEKLIRGLAMEDSRNMFALFEYNGHVDKAIESRTVVADVLAKFEKLAATSEVGDLPWKFYFKLYCFLDTDNVPKDSVEFAFMFEQAHEAVIHGHHPAPEENLQVLAALRLQYLQGDYTLHAAIPPLEEVYSLQRLKARISQSTKTFTPCERLEKRRTSFLEGTLRRSFRTGSVVRQKVEEEQMLDMWIKEEVSSARASIIDKWRKFQGMNQEQAMAKYMALIKEWPGYGSTLFDVECKEGGFPQELWLGVSADAVSVYKRGEGRPLEVFQYEHILSFGAPLANTYKIVVDERELLFETSEVVDVAKLMKAYISMIVKKRYSTTRSASSQGSSR
modifications: RED-tris-NTA dye on the His tag (Monolith His-Tag Labeling Kit)

Tests used:
[1] = biological target: B4; test: MST
[2] = biological target: T1, His-tagged MYO10^FERM (recombinant MYO10 MyTH4/FERM domain) (UniProt Q9HD67 1504-2058, RED-tris-NTA dye on the His tag (Monolith His-Tag Labeling Kit)); test: MST; His-tagged recombinant FERM domains labelled with RED-tris-NTA at 20 nM, integrin tail peptides at increasing concentration; three independent experiments pooled; conditions: both partners purified
T1 construct: Vector pET151; also called recombinant MYO10^FERM; MYO10 FERM domain; source: E. coli BL-21(DE3), purified (Protino Ni-TED column)
T1 sequence (looked up): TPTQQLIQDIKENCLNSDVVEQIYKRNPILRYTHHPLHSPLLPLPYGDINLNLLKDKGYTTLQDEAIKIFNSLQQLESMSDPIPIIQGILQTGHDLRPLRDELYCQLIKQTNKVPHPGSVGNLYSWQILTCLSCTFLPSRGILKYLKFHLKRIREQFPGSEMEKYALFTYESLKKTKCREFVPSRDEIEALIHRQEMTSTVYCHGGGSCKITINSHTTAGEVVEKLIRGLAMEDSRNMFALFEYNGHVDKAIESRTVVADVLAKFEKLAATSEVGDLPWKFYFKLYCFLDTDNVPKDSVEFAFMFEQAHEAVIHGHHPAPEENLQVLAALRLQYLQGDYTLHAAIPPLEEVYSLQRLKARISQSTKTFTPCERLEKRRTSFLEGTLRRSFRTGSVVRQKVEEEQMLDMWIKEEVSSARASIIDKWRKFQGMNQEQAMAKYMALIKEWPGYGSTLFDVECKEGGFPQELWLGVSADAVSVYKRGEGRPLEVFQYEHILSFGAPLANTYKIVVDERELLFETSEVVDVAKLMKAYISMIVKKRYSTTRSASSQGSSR

[3] = biological target: T2, His-TLN1^FERM (recombinant talin-FERM domain) (UniProt P26039 86-403, RED-tris-NTA dye on the His tag (Monolith His-Tag Labeling Kit)); test: as above; conditions: both partners purified
T2 construct: Talin-1 (TLN1) FERM domain; source: E. coli BL-21(DE3), purified (Protino Ni-TED column)

[4] = biological target: T3, ITGA5 tail peptide (Homo sapiens); test: MST
T3 chain: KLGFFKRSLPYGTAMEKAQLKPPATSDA

Kd [1]: 15.8 µM
binding result [2]: binds
B1: conserved region of the α2-integrin tail, peptide (peptide)
peptide: WKLGFFKRKYEKM
modifications: also: biotinylated, position not given here
notes: Integrin alpha-2 (ITGA2), conserved membrane-proximal region of the cytoplasmic tail; also called ITGA2^WT; ITGA2; source: synthetic peptide (custom, LifeTein)

Kd [2]: 25.1 µM
Kd [3]: 4.7 µM
B2: wild-type β1-integrin tail peptide (peptide)
peptide: KLLMIIHDRREFAKFEKEKMNAKWDTGENPIYKSAVTTVVNPKYEGK
modifications: also: biotinylated, position not given here
notes: Integrin beta-1 (ITGB1) cytoplasmic tail; also called β-tail peptide; integrin β tail; source: synthetic peptide (custom, LifeTein)

Kd [4]: 557 µM
B3: His-TLN1^FERM (recombinant talin-FERM domain) (domain or fragment)
chain: RPLKIRMLDGTVKTIMVDDSKTVTDMLMTICARIGITNHDEYSLVRELMEEKKDEGTGTLRKDKTLLRDEKKMEKLKQKLHTDDELNWLDHGRTLREQGVEEHETLLLRRKFFYSDQNVDSRDPVQLNLLYVQARDDILNGSHPVSFDKACEFAGFQCQIQFGPHNEQKHKAGFLDLKDFLPKEYVKQKGERKIFQAHKNCGQMSEIEAKVRYVKLARSLKTYGVSFFLVKEKMKGKNKLVPRLLGITKECVMRVDEKTKEVIQEWSLTNIKRWAASPKSFTLDFGDYQDGYYSVQTTEGEQIAQLIAGYIDIILKKK
modifications: RED-tris-NTA dye on the His tag (Monolith His-Tag Labeling Kit)

Binder: B4
Kd [4]: 18.3 µM
